Reference: publication PMC12795676, “Integrin α5β1 mediates the inhibitory effects of vasoinhibin on angiogenesis and vascular permeability [image fx1.gif]” (The Journal of Biological Chemistry, 2025)
Blank lines part the entries; values can stand above or below the binder they belong to. No end group written: not given here.

Assays:
Details in all cases: both partners purified
[1] = biological target: T1, recombinant human integrin α5β1 (human, UniProt P08648 42-995; P05556 21-728); assay: SPR; B-Vi45-51 (100 nM) immobilised on a streptavidin SA chip (Biacore 1K); integrin α5β1 injected at 30 μl/min, 60 s association/dissociation; HBS-P, 150 mM NaCl, 1 mM MnCl2, pH 7.4; 1:1 model (legend: steady-state)
T1 construct: integrin α5 subunit, human, recombinant; integrin β1 subunit, human, recombinant; No catalogue number is printed; also called α5β1 integrin; source: bought: Bio-Techne

[2] = biological target: T1, recombinant human integrin α5β1; assay: ELISA; plates coated with 2 μg/mL integrin α5β1, PAI-1 or PAI-1-uPA complex; incubated with B-Vi45-51 or Vi (dose-dependent) or 100 nM Vi mutants; horseradish peroxidase antibodies and TMB
[3] = biological target: plasminogen activator inhibitor-1 (PAI-1), immobilised on ELISA plates (UniProt P05121 24-402); assay: as above
[4] = biological target: T2, PAI-1-uPA complex, immobilised on ELISA plates (UniProt P05121 24-402; P00749 21-431); assay: as above
T2 construct: the methods print '(37 °C, 10 min)' after the complex
T2 sequence (P05121 24-402, chain 1 of 2, other chains not shown): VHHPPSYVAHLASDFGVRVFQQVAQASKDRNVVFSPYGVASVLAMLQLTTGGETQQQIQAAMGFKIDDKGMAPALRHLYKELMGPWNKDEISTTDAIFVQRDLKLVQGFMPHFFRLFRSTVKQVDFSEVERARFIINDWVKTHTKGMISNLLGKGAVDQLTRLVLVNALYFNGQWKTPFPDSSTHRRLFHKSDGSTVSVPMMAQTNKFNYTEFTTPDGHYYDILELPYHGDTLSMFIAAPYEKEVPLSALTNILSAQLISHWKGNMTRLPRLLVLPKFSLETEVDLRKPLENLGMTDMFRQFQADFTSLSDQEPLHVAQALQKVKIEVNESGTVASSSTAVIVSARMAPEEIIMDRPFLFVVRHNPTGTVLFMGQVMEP

T1 sequence (P08648 42-995, chain 1 of 2): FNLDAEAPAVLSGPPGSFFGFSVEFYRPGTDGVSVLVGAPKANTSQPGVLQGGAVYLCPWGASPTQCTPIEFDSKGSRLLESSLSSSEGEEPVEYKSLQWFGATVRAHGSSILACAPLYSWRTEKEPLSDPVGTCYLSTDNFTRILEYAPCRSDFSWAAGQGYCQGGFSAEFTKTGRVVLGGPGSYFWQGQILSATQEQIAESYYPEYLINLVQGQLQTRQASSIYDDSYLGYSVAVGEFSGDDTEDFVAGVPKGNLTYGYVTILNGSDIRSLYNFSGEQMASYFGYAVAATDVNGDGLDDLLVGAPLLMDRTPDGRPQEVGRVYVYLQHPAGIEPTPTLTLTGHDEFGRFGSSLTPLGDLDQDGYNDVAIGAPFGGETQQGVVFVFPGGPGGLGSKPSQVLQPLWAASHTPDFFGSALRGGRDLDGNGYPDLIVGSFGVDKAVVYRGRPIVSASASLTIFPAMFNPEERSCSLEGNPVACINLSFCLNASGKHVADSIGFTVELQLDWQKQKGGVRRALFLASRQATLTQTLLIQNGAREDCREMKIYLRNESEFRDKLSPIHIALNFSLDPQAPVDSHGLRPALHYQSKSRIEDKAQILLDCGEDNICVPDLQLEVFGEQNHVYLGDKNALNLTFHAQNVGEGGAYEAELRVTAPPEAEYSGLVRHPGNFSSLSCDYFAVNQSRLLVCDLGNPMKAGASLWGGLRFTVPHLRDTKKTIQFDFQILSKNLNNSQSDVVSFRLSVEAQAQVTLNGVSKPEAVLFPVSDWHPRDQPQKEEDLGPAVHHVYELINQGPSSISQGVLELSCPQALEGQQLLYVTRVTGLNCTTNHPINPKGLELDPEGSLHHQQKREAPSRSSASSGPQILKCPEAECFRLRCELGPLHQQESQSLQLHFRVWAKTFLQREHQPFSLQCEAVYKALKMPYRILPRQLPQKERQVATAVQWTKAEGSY
T1 sequence (P05556 21-728, chain 2 of 2): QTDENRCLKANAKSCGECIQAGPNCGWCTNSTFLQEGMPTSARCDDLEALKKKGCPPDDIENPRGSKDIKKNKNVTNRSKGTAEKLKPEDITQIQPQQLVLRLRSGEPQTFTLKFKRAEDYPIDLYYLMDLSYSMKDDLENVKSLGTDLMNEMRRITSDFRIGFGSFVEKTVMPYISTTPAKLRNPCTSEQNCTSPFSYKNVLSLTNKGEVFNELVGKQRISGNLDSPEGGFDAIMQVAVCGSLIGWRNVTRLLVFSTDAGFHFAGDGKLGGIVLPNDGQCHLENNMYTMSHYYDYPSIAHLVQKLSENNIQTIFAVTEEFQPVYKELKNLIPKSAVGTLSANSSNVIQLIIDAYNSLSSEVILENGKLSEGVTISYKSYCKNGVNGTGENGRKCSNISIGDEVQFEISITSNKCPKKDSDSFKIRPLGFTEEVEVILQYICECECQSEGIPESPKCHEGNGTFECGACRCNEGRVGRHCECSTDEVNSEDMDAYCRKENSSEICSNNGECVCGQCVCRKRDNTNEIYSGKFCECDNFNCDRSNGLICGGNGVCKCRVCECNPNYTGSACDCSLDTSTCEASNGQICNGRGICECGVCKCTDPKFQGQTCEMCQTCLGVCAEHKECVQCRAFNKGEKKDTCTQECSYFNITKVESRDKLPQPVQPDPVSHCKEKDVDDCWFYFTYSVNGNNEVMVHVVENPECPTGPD
plasminogen activator inhibitor-1 (PAI-1), immobilised on ELISA plates, sequence (P05121 24-402): as the sequence (P05121 24-402, chain 1 of 2, other chains not shown) above

Kd [1]: 2740 nM
B1: biotinylated peptide comprising residues 45 to 51 of vasoinhibin (B-Vi45-51) (peptide, UniProt P01236 73-79, looked up)
peptide: THGRGFI
modifications: also: biotin, position not given here
notes: vasoinhibin (fragment of prolactin), residues 45 to 51, holds the HGR motif (H46, R48 printed); also called biotinylated Vi45-51; source: synthetic peptide, bought: GenScript

Kd [2]: 383 nM
Kd [3]: 528 nM
Kd [4]: 406 nM
B2: vasoinhibin (Vi) (domain or fragment, UniProt P01236 29-151, looked up)
chain: LPICPGGAARCQVTLRDLFDRAVVLSHYIHNLSSEMFSEFDKRYTHGRGFITKAINSCHTSSLATPEDKEQAQQMNQKDFLSLIVSILRSWNEPLYHLVTEVRGMQEAPEAILSKAVEIEEQT
notes: vasoinhibin, a fragment of the hormone prolactin; also called 16K prolactin
